Measurements from PMC9282010 (Molecular Biology of the Cell, 2022).

B1: Vti1, the vacuolar Qb-SNARE (wild type, membrane-anchored) (natural protein)
chain: MSSLLISYESDFKTTLEQAKASLAEAPSQPLSQRNTTLKHVEQQQDELFDLLDQMDVEVNNSIGDASERATYKAKLREWKKTIQSDIKRPLQSLVDSGDRDRLFGDLNASNIDDDQRQQLLSNHAILQKSGDRLKDASRIANETEGIGSQIMMDLRSQRETLENARQTLFQADSYVDKSIKTLKTMTRRLVANKFISYAIIAVLILLILLVLFSKFK
B3: Qa(JxR): Vam3 with the juxtamembrane region of Nyv1 and its own TM (other)
chain: MSFFDIEAQSSKGNSQQEPQFSTNQKTKELSNLIETFAEQSRVLEKECTKIGSKRDSKELRYKIETELIPNCTSVRDKIESNILIHQNGKLSADFKNLKTKYQSLQQSYNQRKSLFPLKTPISPGTSKERKDIHPRTEAVRQDPESSYISIKVNEQSPLLHNEGQHQLQLQEEQEQQQQGLSQEELDFQTIIHQERSQQIGRIHTAVQEVNAIFHQLGSLVKEQGEQVTTIDENISHLHDNMQNANKQLTRADEIMWWQKVKKVTLIIIIVVCMVVLLAVLS

Experiments:
Assay in all cases: co-IP
[1] = molecular target: T1, Vam3, the vacuolar Qa-SNARE (wild type) (yeast, UniProt Q12241 1-283)
T1 sequence: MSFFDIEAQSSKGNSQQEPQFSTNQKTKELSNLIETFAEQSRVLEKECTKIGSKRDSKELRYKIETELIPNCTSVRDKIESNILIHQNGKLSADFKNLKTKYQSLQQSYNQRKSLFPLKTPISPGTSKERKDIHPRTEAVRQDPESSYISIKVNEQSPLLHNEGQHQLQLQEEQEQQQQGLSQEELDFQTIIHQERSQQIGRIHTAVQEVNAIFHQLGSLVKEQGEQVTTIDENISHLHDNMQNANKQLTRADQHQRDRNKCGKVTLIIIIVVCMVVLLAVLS

[2] = molecular target: B3
[3] = molecular target: B1

## B1
[1]
  binding result: binds

B2: R(JxQa): Nyv1 with the juxtamembrane region of Vam3 and its own TM (other)
chain: MKRFNVSYVEVIKNGETISSCFQPFQKNENYGTITSANEQITPVIFHNLIMDMVLPKVVPIKGNKVTKMSMNLIDGFDCFYSTDDHDPKTVYVCFTLVDMPKILPIRILSGLQEYESNATNELLSSHVGQILDSFHEELVEYRNQTLNSSGNGQSSNGNGQNTISDIGDATEDQIKDVIQIMNDNIDKFLERQERVSLLVDKTSQLNSSSNKFRRKAVNIKQHQRDRNKCGNITLLTFTIILFVSAAFMFFYLW
[2]
  binding result: binds

## B3
[3]
  binding result: binds
